In PMC9352680, “A comprehensive thermodynamic model for RNA binding by the Saccharomyces cerevisiae Pumilio protein PUF4”:
Changes are numbered by the printed parent chain. Names may count otherwise.

B1: Ib_S4_P3E.1_K3.1_C3.1_H3.1_[G2C]_A3.1_F3.1_[A8T]_T3.1 (ssRNA)
RNA: UUUGACAACUGAUCGUUCUUUCUUCUAUAUUUUCUUUCUCGAUCAGUUGUCUUU
B2: Ib_S4_P3E.1_K3.1_C3.1_H3.1_[G2A]_A3.1_[A6G]_F3.1_T3.1 (ssRNA)
RNA: B1 RNA with C25A, A29G, U31A
B3: Ib_S4_P3E.1_K3.1_C3.1_H3.1_A3.1_[A6T]_F3.1_[T7C]_T3.1 (ssRNA)
RNA: B1 RNA with C25G, A29U, U30C, U31A
B4: Ib_S4_P3E.1_K3.1_C3.1_H3.1_[G2A]_[A4G]_A3.1_F3.1_T3.1 (ssRNA)
RNA: B1 RNA with C25A, A27G, U31A
B5: Ib_S4_P3E.1_K3.1_C3.1_H3.1_[T1A]_[A4C]_A3.1_F3.1_T3.1 (ssRNA)
RNA: B1 RNA with U24A, C25G, A27C, U31A
B6: Ib_S4_P3E.1_K3.1_C3.1_H3.1_[G2A]_A3.1_[T5C]_F3.1_T3.1 (ssRNA)
RNA: B1 RNA with C25A, U28C, U31A
B7: Ia_S4_P3E.1_K3.1_C3.1_H3.1_A3.1_F3.1_[A8G]_T3.1 (ssRNA)
RNA: B1 RNA with C25G, U31G
B8: Ib_S4_P3E.1_K3.1_C3.1_H3.1_[T1A]_A3.1_[A6G]_F3.1_T3.1 (ssRNA)
RNA: B1 RNA with U24A, C25G, A29G, U31A
B9: Ib_S4_P3E.1_K3.1_C3.1_H3.1_[T1C]_A3.1_[T5A]_F3.1_T3.1 (ssRNA)
RNA: B1 RNA with U24C, C25G, U28A, U31A
B10: Ib_S4_P3E.1_K3.1_C3.1_H3.1_A3.1_[A6G]_F3.1_[T7C]_T3.1 (ssRNA)
RNA: B1 RNA with C25G, A29G, U30C, U31A
B11: Ib_S4_P3E.1_K3.1_C3.1_H3.1_[T3C]_A3.1_F3.1_[A8T]_T3.1 (ssRNA)
RNA: B1 RNA with C25G, U26C
B12: Ib_S4_P3E.1_K3.1_C3.1_H3.1_[G2A]_A3.1_[T5A]_F3.1_T3.1 (ssRNA)
RNA: B1 RNA with C25A, U28A, U31A
B13: Ib_S4_P3E.1_K3.1_C3.1_H3.1_[G2T]_A3.1_[A6T]_F3.1_T3.1 (ssRNA)
RNA: B1 RNA with C25U, A29U, U31A
B14: Ib_S4_P3E.1_K3.1_C3.1_H3.1_[T1C]_[A4C]_A3.1_F3.1_T3.1 (ssRNA)
RNA: B1 RNA with U24C, C25G, A27C, U31A
B15: Ib_S4_P3E.1_K3.1_C3.1_H3.1_A3.1_[A6T]_F3.1_[A8C]_T3.1 (ssRNA)
RNA: B1 RNA with C25G, A29U, U31C
B16: Ic_S4_P3E.1_K3.1_C3.1_H3.1_A3.1_[A6C]_F3.1_[A8T]_T3.1 (ssRNA)
RNA: B1 RNA with C25G, A29C
B17: Ic_S4_P3E.1_K3.1_C3.1_H3.1_A3.1_[T5C]_F3.1_[A8C]_T3.1 (ssRNA)
RNA: B1 RNA with C25G, U28C, U31C
B18: Ib_S4_P3E.1_K3.1_C3.1_H3.1_[A4C]_A3.1_[A6G]_F3.1_T3.1 (ssRNA)
RNA: B1 RNA with C25G, A27C, A29G, U31A
B19: Ib_S4_P3E.1_K3.1_C3.1_H3.1_[T3C]_[A4C]_A3.1_F3.1_T3.1 (ssRNA)
RNA: B1 RNA with C25G, U26C, A27C, U31A
B20: Ib_S4_P3E.1_K3.1_C3.1_H3.1_[A4C]_A3.1_F3.1_[A8T]_T3.1 (ssRNA)
RNA: B1 RNA with C25G, A27C
B21: Ib_S4_P3E.1_K3.1_C3.1_H3.1_[A4G]_A3.1_[A6C]_F3.1_T3.1 (ssRNA)
RNA: B1 RNA with C25G, A27G, A29C, U31A
B22: Ib_S4_P3E.1_K3.1_C3.1_H3.1_[G2C]_[A4T]_A3.1_F3.1_T3.1 (ssRNA)
RNA: B1 RNA with A27U, U31A
B23: Ib_S4_P3E.1_K3.1_C3.1_H3.1_[T1G]_[A4C]_A3.1_F3.1_T3.1 (ssRNA)
RNA: B1 RNA with U24G, C25G, A27C, U31A
B24: Ib_S4_P3E.1_K3.1_C3.1_H3.1_[T1G]_A3.1_[T5C]_F3.1_T3.1 (ssRNA)
RNA: B1 RNA with U24G, C25G, U28C, U31A
B25: Ib_S4_P3E.1_K3.1_C3.1_H3.1_A3.1_[T5C]_[A6C]_F3.1_T3.1 (ssRNA)
RNA: B1 RNA with C25G, U28C, A29C, U31A
B26: Ic_S4_P3E.1_K3.1_C3.1_H3.1_A3.1_[T5A]_F3.1_[T7C]_T3.1 (ssRNA)
RNA: B1 RNA with C25G, U28A, U30C, U31A
B27: Ib_S4_P3E.1_K3.1_C3.1_H3.1_[T1G]_A3.1_[A6C]_F3.1_T3.1 (ssRNA)
RNA: B1 RNA with U24G, C25G, A29C, U31A
B28: Ib_S4_P3E.1_K3.1_C3.1_H3.1_[T1A]_A3.1_[T5C]_F3.1_T3.1 (ssRNA)
RNA: B1 RNA with U24A, C25G, U28C, U31A
B29: Ib_S4_P3E.1_K3.1_C3.1_H3.1_A3.1_[T5A]_F3.1_[T7A]_T3.1 (ssRNA)
RNA: B1 RNA with C25G, U28A, U30A, U31A
B30: Ic_S4_P3E.1_K3.1_C3.1_H3.1_A3.1_[T5A]_F3.1_[A8G]_T3.1 (ssRNA)
RNA: B1 RNA with C25G, U28A, U31G
B31: Ib_S4_P3E.1_K3.1_C3.1_H3.1_[A4C]_A3.1_[T5C]_F3.1_T3.1 (ssRNA)
RNA: B1 RNA with C25G, A27C, U28C, U31A
B32: Ib_S4_P3E.1_K3.1_C3.1_H3.1_[G2A]_A3.1_[A6T]_F3.1_T3.1 (ssRNA)
RNA: B1 RNA with C25A, A29U, U31A
B33: Ia_S4_P3E.1_K3.1_C3.1_H3.1_A3.1_F3.1_[T7A]_T3.1 (ssRNA)
RNA: B1 RNA with C25G, U30A, U31A
B34: Ib_S4_P3E.1_K3.1_C3.1_H3.1_[A4C]_A3.1_[T5A]_F3.1_T3.1 (ssRNA)
RNA: B1 RNA with C25G, A27C, U28A, U31A
B35: Ib_S4_P3E.1_K3.1_C3.1_H3.1_[T1A]_A3.1_[A6T]_F3.1_T3.1 (ssRNA)
RNA: B1 RNA with U24A, C25G, A29U, U31A
B36: Ib_S4_P3E.1_K3.1_C3.1_H3.1_[A4G]_A3.1_[A6T]_F3.1_T3.1 (ssRNA)
RNA: B1 RNA with C25G, A27G, A29U, U31A
B37: Ic_S4_P3E.1_K3.1_C3.1_H3.1_A3.1_[A6T]_F3.1_[T7A]_T3.1 (ssRNA)
RNA: B1 RNA with C25G, A29U, U30A, U31A
B38: Ib_S4_P3E.1_K3.1_C3.1_H3.1_[A4C]_A3.1_[A6T]_F3.1_T3.1 (ssRNA)
RNA: B1 RNA with C25G, A27C, A29U, U31A
B39: Ib_S4_P3E.1_K3.1_C3.1_H3.1_[G2C]_[A4G]_A3.1_F3.1_T3.1 (ssRNA)
RNA: B1 RNA with A27G, U31A
B40: Ib_S4_P3E.1_K3.1_C3.1_H3.1_[A4G]_A3.1_[T5C]_F3.1_T3.1 (ssRNA)
RNA: B1 RNA with C25G, A27G, U28C, U31A
B41: Ic_S4_P3E.1_K3.1_C3.1_H3.1_A3.1_[A6G]_F3.1_[A8T]_T3.1 (ssRNA)
RNA: B1 RNA with C25G, A29G
B42: Ib_S4_P3E.1_K3.1_C3.1_H3.1_[T1C]_A3.1_[A6T]_F3.1_T3.1 (ssRNA)
RNA: B1 RNA with U24C, C25G, A29U, U31A
B43: Ib_S4_P3E.1_K3.1_C3.1_H3.1_[T3C]_[A4G]_A3.1_F3.1_T3.1 (ssRNA)
RNA: B1 RNA with C25G, U26C, A27G, U31A
B44: Ib_S4_P3E.1_K3.1_C3.1_H3.1_[G2C]_[A4C]_A3.1_F3.1_T3.1 (ssRNA)
RNA: B1 RNA with A27C, U31A
B45: Ib_S4_P3E.1_K3.1_C3.1_H3.1_A3.1_[A6T]_F3.1_[A8T]_T3.1 (ssRNA)
RNA: B1 RNA with C25G, A29U
B46: Ib_S4_P3E.1_K3.1_C3.1_H3.1_[T1A]_A3.1_[A6C]_F3.1_T3.1 (ssRNA)
RNA: B1 RNA with U24A, C25G, A29C, U31A
B47: Ib_S4_P3E.1_K3.1_C3.1_H3.1_[T1G]_A3.1_[A6G]_F3.1_T3.1 (ssRNA)
RNA: B1 RNA with U24G, C25G, A29G, U31A
B48: Ib_S4_P3E.1_K3.1_C3.1_H3.1_[T3C]_[A4T]_A3.1_F3.1_T3.1 (ssRNA)
RNA: B1 RNA with C25G, U26C, A27U, U31A
B49: Ib_S4_P3E.1_K3.1_C3.1_H3.1_[T1A]_A3.1_[T5A]_F3.1_T3.1 (ssRNA)
RNA: B1 RNA with U24A, C25G, U28A, U31A
B50: Ib_S4_P3E.1_K3.1_C3.1_H3.1_[A4C]_A3.1_[A6C]_F3.1_T3.1 (ssRNA)
RNA: B1 RNA with C25G, A27C, A29C, U31A
B51: Ic_S4_P3E.1_K3.1_C3.1_H3.1_A3.1_[T5C]_[A6T]_F3.1_T3.1 (ssRNA)
RNA: B1 RNA with C25G, U28C, A29U, U31A
B52: Ib_S4_P3E.1_K3.1_C3.1_H3.1_[G2T]_[A4G]_A3.1_F3.1_T3.1 (ssRNA)
RNA: B1 RNA with C25U, A27G, U31A
B53: Ib_S4_P3E.1_K3.1_C3.1_H3.1_A3.1_[A6G]_F3.1_[A8G]_T3.1 (ssRNA)
RNA: B1 RNA with C25G, A29G, U31G
B54: Ib_S4_P4E.1_K4.1_C4.1_H4.1_A4.1_F4.1_[T8G]_[A9C]_T4.1 (ssRNA)
RNA: UUUGACAACUGAUCGUUCUUUCUUGUAUAUGCUUCUUUCUCGAUCAGUUGUCUUU

Biological target: T1, PUF4 RNA-binding domain (Saccharomyces cerevisiae, UniProt P25339 537-888)
T1 sequence: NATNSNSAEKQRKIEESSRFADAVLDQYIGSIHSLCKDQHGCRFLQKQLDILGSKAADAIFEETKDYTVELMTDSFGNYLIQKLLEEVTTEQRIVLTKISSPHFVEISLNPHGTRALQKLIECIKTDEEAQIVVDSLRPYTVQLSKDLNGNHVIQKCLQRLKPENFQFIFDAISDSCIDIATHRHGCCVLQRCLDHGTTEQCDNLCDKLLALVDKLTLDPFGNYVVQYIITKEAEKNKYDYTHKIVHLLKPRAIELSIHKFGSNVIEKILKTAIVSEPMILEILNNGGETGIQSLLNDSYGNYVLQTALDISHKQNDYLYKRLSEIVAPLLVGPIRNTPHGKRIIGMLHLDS
Assay: Mg; RNA-MaP; 20 mM Na-HEPES pH 7.4, 30 mM KOAc, 0.75 mM MgCl2, 0.1% Tween-20, 5% glycerol, 0.1 mg/mL BSA, 2 mM DTT; 25 C; 0.0125-409.6 nM protein
Conditions: tags: N-His6-TEV cleaved; C-SNAP kept, Cy3B-labelled; label: tethered on chip by stalled RNA polymerase

| Binder | Kd |
| --- | --- |
| UCUCUUUGCAUAUAUCUCUU (ssRNA) [Ia_S1_P3E.1_K3.1_C3.1_H3.1_[T3C]_A3.1_F3.1_T3.1] | > 2300 nM |
| B1 | 1640 nM |
| B2 | 72.2 nM |
| B3 | 121 nM |
| B4 | 5.75 nM |
| B5 | > 2300 nM |
| B6 | 383 nM |
| B7 | 8.32 nM |
| B8 | 225 nM |
| B9 | > 2300 nM |
| B10 | 295 nM |
| B11 | 1510 nM |
| B12 | 2080 nM |
| B13 | > 2300 nM |
| B14 | > 2300 nM |
| B15 | 28.4 nM |
| B16 | 13.5 nM |
| B17 | 9.55 nM |
| B18 | 40.5 nM |
| B19 | > 2300 nM |

| Binder | Kd |
| --- | --- |
| B20 | 289 nM |
| B21 | 117 nM |
| B22 | 1800 nM |
| B23 | > 2300 nM |
| B24 | 1810 nM |
| B25 | 14.8 nM |
| B26 | 374 nM |
| B27 | > 2300 nM |
| B28 | > 2300 nM |
| B29 | 262 nM |
| B30 | 296 nM |
| B31 | 443 nM |
| B32 | 1900 nM |
| B33 | 54.5 nM |
| B34 | 1450 nM |
| B35 | > 2300 nM |
| B36 | 92.3 nM |
| B37 | 82 nM |
| B38 | 1140 nM |
| B39 | 2.45 nM |

| Binder | Kd |
| --- | --- |
| B40 | 22.4 nM |
| B41 | 25.7 nM |
| B42 | > 2300 nM |
| B43 | 1160 nM |
| B44 | > 2300 nM |
| B45 | 11.9 nM |
| B46 | > 2300 nM |
| B47 | 198 nM |
| B48 | 2120 nM |
| B49 | > 2300 nM |
| B50 | 1370 nM |
| B51 | 16.8 nM |
| B52 | 3.32 nM |
| B53 | 38.2 nM |
| ACAAACUAUAUAUUAACAAAC (ssRNA) [Ia_S3_P4E.1_K4.1_C4.1_H4.1_[G2A]_A4.1_F4.1_T4.1] | 33.9 nM |
| B54 | 20.6 nM |
| ACAAACAGUAUUAUUAACAAAC (ssRNA) [Ia_S3_P5E.1_K5.1_C5.1_H5.1_[T1A]_A5.1_F5.1_T5.1] | 1980 nM |
| ACAAACUGUCUUAUUAACAAAC (ssRNA) [Ia_S3_P5E.1_K5.1_C5.1_H5.1_[A4C]_A5.1_F5.1_T5.1] | 365 nM |
